Reference: US20190352639A1 (University of Washington, published 2019)

Key:
[1] = target: the molecule itself; assay: size exclusion chromatography and negative stain electron microscopy, self-assembly
[2] = target: the molecule itself; assay: electron cryo-tomography of vesicles from transfected HEK293T cells, self-assembly

B1: Myr-I3-01-myc-p6 (designed binder)
chain: MGARASGSKSGSGSDSGSKMEELFKKHKIVAVLRANSVEEAKKKALAVFLGGVHLIEITFTVPDADTVIKELSFLKEMGAIIGAGTVTSVEQCRKAVESGAEFIVSPHLDEEISQFCKEKGVFYMPGVMTPTELVKAMKLGHTILKLFPGEVVGPQFVKAMKGPFPNVKFVPTGGVNLDNVCEWFKAGVLAVGVGSALVKGTPVEVAEKAKAFVEKIRGCTEQKLISEEDLQSRPEPTAPPEESFRSGVETTTPPQKQEPIDKELYPLTSLRSLFGNDPSSQ
modifications: N-terminal myristoylation motif (6 N-terminal residues of HIV Gag); myristoylated in mammalian cells, not in E. coli
notes: Fusion of the HIV Gag N-terminal six residues, a linker, I3-01, a myc tag and the HIV Gag p6 domain; also called Myr-I3-01-p6
- binding result [1]: binds

B2: EPN-01 (designed binder)
chain: MGARASGSKSGSGSDSGSKIEELFKKHKIVAVLRANSVEEAKKKALAVFLGGVHLIEITFTVPDADTVIKELSFLKEMGAIIGAGTVTSVEQCRKAVESGAEFIVSPHLDEEISQFCKEKGVFYMPGVMTPTELVKAMKLGHTILKLFPGEVVGPQFVKAMKGPFPNVKFVPTGGVNLDNVCEWFKAGVLAVGVGSALVKGTPVEVAEKAKAFVEKIRGCTEQKLISEEDLQSRPEPTAPPEESFRSGVETTTPPQKQEPIDKELYPLTSLRSLFGNDPSSQ
modifications: N-terminal myristoylation motif
notes: Myr-I3-01-myc-p6 with the methionine at the N-terminal end of the I3-01 O domain mutated to isoleucine
- binding result [2]: binds
